Results as given in US7867500B2, “Cofactor that modulates steroid receptor activities” (The United States of America as represented by the …, priority 2004, dated 2011).

Columns and labels:
Type in all cases: cell-based
coll3 promoter = test: ChIP assay on the endogenous coll3 promoter in U2OS.rGR cells; conditions: 1 μM Dex, after 20 min of steroid treatment; HA/STAMP
Description: FIG. 5C illustrates that STAMP and GR are co-localized on the promoter of an endogenous regulated gene as detected by chromatin immunoprecipitation (ChIP) assays. U2OS.rGR cells were treated with 1 μM Dex and then processed after 0 to 80 min as described in Example 1. The binding of GR and STAMP to the coll3 promoter was determined by the ability of PCR to amplify coll3 promoter sequences in the DNA that had been co-immunoprecipitated by anti-GR and anti-HA (to immobilize HA/STAMP) antibodies, respectively (upper panel). […] Similar results were obtained in two additional experiments.
The basic method of Ma et al. (Ma et al. (2003) Methods Enzymol. 364: […], was used with modifications. Two days before harvest, U2OS.rGR cells were seeded into 150 mm dishes at 3,000,000 cells per dish in phenol-red free medium with 10% charcoal/dextran-stripped fetal bovine serum. Each dish was transfected on the next day with 15 μg HA-STAMP and 60 μl Liopfectamine. On the third day, after brief ligand treatment, formaldehyde (37%) was added directly into the medium to a final concentration of 1% (37° C., 10 min), which was followed by glycine to a final concentration of 0.125 M (room temperature, 5 min with shaking). Cells were washed with (4° C.) cold PBS twice and harvested by scraping into 5 ml of cold (4° C.) PBS with a protease inhibitor cocktail (Roche). […]

thyroid receptor β (TRβ) = target: T1, thyroid receptor β (TRβ) (Homo sapiens, UniProt P10828); test: TRβ-mediated induction of reporter in CV-1 cells; conditions: triiodothyronine; regardless of whether TIF2 is present
T1 construct: the whole cell actions of TIF2 with full length AR and TRβ; expressed in transfected cells; host or cells: CV-1
T1 sequence (P10828 1-461): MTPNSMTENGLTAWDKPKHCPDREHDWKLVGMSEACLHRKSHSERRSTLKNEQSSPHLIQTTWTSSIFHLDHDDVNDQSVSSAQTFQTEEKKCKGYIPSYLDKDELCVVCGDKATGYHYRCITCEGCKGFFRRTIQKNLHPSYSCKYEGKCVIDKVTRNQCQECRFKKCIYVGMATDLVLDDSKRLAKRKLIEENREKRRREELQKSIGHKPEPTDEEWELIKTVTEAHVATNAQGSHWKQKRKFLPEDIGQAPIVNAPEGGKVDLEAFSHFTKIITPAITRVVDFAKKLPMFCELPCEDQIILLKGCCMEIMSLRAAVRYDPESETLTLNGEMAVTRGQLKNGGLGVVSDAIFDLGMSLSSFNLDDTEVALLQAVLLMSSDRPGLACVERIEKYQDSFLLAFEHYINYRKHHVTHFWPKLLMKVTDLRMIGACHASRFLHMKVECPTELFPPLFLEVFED
Description: FIG. 6D1-2 illustrate the effects of STAMP and TIF2 on androgen receptor (AR, FIG. 6D1) and thyroid receptor β (TRβ, FIG. 6D2) expression. […] Luciferase activities, normalized to the internal Renilla control values, and the fold changes in EC50 and fold induction were determined and plotted as in FIG. 4B.

CBP = target: T2, CBP (Homo sapiens, UniProt Q92793); test: Mammalian two-hybrid assay with CBP; conditions: data not shown
T2 construct: expressed in transfected cells; host or cells: CV-1 (the same two-hybrid assay)
T2 sequence (Q92793 whole entry): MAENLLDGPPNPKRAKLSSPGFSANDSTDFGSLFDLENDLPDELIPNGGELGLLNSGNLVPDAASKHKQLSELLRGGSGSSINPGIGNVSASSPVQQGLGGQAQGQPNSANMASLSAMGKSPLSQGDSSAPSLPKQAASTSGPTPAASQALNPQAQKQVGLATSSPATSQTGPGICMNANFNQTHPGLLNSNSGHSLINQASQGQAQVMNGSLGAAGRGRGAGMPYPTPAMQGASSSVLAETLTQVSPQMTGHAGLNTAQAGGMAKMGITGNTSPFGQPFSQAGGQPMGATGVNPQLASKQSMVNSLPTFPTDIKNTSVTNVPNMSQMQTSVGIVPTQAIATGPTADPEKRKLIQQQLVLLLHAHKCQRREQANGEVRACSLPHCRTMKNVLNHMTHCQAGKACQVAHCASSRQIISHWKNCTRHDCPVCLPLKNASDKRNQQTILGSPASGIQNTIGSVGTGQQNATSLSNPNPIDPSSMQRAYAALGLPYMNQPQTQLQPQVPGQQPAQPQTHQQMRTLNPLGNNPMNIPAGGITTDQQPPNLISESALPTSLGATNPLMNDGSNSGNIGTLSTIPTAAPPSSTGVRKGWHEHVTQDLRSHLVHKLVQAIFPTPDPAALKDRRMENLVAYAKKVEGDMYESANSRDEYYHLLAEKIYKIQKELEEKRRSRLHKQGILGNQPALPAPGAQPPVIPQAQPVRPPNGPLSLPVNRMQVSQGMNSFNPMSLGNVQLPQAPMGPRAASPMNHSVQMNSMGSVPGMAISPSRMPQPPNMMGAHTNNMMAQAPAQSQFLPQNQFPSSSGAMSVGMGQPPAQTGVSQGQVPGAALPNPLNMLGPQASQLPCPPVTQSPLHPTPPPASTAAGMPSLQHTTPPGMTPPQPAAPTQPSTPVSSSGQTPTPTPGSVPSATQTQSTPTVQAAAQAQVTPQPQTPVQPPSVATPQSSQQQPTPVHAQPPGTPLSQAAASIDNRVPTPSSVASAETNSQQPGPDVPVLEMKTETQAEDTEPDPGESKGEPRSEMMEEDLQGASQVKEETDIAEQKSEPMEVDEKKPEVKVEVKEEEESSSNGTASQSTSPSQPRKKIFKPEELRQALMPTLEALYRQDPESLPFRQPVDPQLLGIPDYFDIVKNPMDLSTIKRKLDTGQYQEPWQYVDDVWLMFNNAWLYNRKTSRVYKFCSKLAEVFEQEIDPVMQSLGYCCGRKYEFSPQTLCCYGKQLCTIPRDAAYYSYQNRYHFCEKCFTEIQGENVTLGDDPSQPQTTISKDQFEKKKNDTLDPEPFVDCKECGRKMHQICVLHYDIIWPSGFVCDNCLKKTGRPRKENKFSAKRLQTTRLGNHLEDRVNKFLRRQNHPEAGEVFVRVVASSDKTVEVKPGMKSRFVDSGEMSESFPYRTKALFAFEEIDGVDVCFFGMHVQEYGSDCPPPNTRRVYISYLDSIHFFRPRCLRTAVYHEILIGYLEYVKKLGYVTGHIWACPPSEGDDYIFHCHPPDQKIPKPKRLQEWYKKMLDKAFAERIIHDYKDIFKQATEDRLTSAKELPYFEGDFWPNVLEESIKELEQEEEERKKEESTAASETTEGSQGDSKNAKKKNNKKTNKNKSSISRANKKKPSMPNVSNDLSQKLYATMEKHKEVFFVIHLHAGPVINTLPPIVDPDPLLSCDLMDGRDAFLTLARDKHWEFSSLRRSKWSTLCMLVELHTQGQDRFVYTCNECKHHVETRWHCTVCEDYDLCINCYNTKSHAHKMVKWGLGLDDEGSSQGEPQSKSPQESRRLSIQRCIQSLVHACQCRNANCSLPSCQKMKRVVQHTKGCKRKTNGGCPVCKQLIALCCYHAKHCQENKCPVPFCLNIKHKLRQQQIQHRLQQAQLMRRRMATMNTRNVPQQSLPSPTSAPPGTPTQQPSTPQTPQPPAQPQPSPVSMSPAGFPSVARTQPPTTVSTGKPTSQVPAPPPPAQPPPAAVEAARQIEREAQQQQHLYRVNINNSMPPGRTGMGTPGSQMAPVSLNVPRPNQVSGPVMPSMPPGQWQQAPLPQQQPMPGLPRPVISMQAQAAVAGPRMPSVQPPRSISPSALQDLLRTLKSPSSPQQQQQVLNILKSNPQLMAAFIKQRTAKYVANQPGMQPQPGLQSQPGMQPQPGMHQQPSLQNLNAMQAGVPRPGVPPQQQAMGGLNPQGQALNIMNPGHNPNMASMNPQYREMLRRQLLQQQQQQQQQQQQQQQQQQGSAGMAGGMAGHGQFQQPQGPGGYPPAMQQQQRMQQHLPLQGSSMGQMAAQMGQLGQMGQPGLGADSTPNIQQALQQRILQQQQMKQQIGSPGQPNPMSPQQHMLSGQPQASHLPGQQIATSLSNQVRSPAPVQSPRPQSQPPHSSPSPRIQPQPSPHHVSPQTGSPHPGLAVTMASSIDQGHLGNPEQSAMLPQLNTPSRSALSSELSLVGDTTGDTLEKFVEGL
Description: These assays were conducted as described (He et al., 2002). In particular, the recommended procedure for the Mammalian Matchmaker two-hybrid assay kit (Clontech) was modified slightly by changing from a chloramphenicol acetyltransferase reporter to a Luciferase Reporter pFRLuc (Stratagene), which is under the control of five repeats of the upstream activating sequence for the binding of GAL4.

[1] = target: T3, thyroid (TR) (β) receptor (Homo sapiens, UniProt P10828); test: Mammalian two-hybrid assay with VP16 full length receptor: TRβ; conditions: 0.1 μM triiodothyronine
T3 construct: plus VP16 fused to the indicated full length receptors; expressed in transfected cells; host or cells: CV-1
T3 sequence (P10828 1-461): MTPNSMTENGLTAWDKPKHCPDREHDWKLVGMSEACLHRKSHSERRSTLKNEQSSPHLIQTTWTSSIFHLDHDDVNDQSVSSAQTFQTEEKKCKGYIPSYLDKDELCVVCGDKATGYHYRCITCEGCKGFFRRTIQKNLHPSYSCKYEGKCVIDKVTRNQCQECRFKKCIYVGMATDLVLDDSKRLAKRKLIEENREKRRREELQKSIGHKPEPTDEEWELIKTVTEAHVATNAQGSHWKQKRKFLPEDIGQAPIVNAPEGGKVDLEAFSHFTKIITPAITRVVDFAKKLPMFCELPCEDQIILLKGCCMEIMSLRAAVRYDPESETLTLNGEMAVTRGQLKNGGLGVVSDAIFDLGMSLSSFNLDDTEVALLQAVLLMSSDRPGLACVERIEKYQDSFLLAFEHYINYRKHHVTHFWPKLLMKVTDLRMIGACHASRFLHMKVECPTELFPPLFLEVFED
Description: FIG. 6C1-3 illustrate the association of STAMP with assorted steroid/nuclear receptors, including glucocorticoid receptors (GRs), progesterone receptors (PRs), androgen receptors (ARs), estrogen receptors (ER α or β), PPARγ2 receptors, thyroid receptor beta (TR), and retinoid (α) receptors (RAR α or RXR α). Triplicate samples of CV-1 cells were transfected (as described for FIG. 6B) with GAL, or GAL fused to TIF2.4 or STAMP834C, plus VP16 fused to the indicated full length receptors and incubated with the appropriate steroid (1 μM Dex, 20 nM R5020, 1 nM R1881, 0.1 μM triiodothyronine, or 1 μM estradiol, roziglitazone, or 9-cis-retinoic acid). The average relative luciferase activities of 2-3 experiments±S.E.M. were then plotted. FIG. 6C1 illustrates the effects of STAMP association upon GR, PR and AR induced expression. FIG. 6C2 illustrates the effects of STAMP association upon ERα, ERβ and PPARγ2 induced expression. FIG. 6C3 illustrates the effects of STAMP association upon TR, RARα and RXRα induced expression.
These assays were conducted as described (He et al., 2002). […]

B1: STAMP: SRC-1 and TIF2 Associated Modulatory Protein, 1277 amino acid human polypeptide, expressed from transfected plasmid (protein)
chain: MARDLEETASSSEDEEVISQEDHPCIMWTGGCRRIPVLVFHADAILTKDNNIRVIGERYHLSYKIVRTDSRLVRSILTAHGFHEVHPSSTDYNLMWTGSHLKPFLLRTLSEAQKVNHFPRSYELTRKDRLYKNIIRMQHTHGFKVFHILPQTFLLPAEYAEFCNSYSKDRGPWIVKPVASSRGRGVYLINNPNQISLEENILVSRYINNPLLIDDFKFDVRLYVLVTSYDPLVIYLYEEGLARFATVRYDQGAKNIRNQFMHLTNYSVNKKSGDYVSCDDPEVEDYGNKWSMSAMLRYLKQEGRDTTALMAHVEDLIIKTIISAELAIATACKTFVPHRSSCFELYGFDVLIDSTLKPWLLEVNLSPSLACDAPLDLKIKASMISDMFTVVGFVCQDPAQRASTRPIYPTFESSRRNPFQKPQRCRPLSASDAEMKNLVGSAREKGPGKLGGSVLGLSMEEIKVLRRVKEENDRRGGFIRIFPTSETWEIYGSYLEHKTSMNYMLATRLFQDRMTADGAPELKIESLNSKAKLHAALYERKLLSLEVRKRRRRSSRLRAMRPKYPVITQPAEMNVKTETESEEEEEVALDNEDEEQEASQEESAGFLRENQAKYTPSLTALVENTPKENSMKVREWNNKGGHCCKLETQELEPKFNLMQILQDNGNLSKMQARIAFSAYLQHVQIRLMKDSGGQTFSASWAAKEDEQMELVVRFLKRASNNLQHSLRMVLPSRRLALLERRRILAHQLGDFIIVYNKETEQMAEKKSKKKVEEEEEDGVNMENFQEFIRQASEAELEEVLTFYTQKNKSASVFLGTHSKISKNNNNYSDSGAKGDHPETIMEEVKIKPPKQQQTTEIHSDKLSRFTTSAEKEAKLVYSNSSSGPTATLQKIPNTHLSSVTTSDLSPGPCHHSSLSQIPSAIPSMPHQPTILLNTVSASASPCLHPGAQNIPSPTGLPRCRSGSHTIGPFSSFQSAAHIYSQKLSRPSSAKAGSCYLNKHHSGIAKTQKEGEDASLYSKRYNQSMVTAELQRLAEKQAARQYSPSSHINLLTQQVTNLNLATGIINRSSASAPPTLRPIISPSGPTWSTQSDPQAPENHSSSPGSRSLQTGGFAWEGEVENNVYSQATGVVPQHKYHPTAGSYQLQFALQQLEQQKLQSRQLLDQSRARHQAIFGSQTLPNSNLWTMNNGAGCRISSATASGQKPTTLPQKVVPPPSSCASLVPKPPPNHEQVLRRATSQKASKGSSAEGQLNGLQSSLNPAASVPITSSTDPAHTKI
coll3 promoter
  localization on the coll3 promoter: induced to localize on the coll3 promoter
Thyroid receptor β (TRβ)
  increase of the fold induction with TRβ: little ability
  left-shift in the dose-response curve with TRβ: little ability

B2: 6-6CL1: STAMP fragment amino acids 623-834, coactivator interaction domain (CID) (protein)
chain: ENTPKENSMKVREWNNKGGHCCKLETQELEPKFNLMQILQDNGNLSKMQARIAFSAYLQHVQIRLMKDSGGQTFSASWAAKEDEQMELVVRFLKRASNNLQHSLRMVLPSRRLALLERRRILAHQLGDFIIVYNKETEQMAEKKSKKKVEEEEEDGVNMENFQEFIRQASEAELEEVLTFYTQKNKSASVFLGTHSKISKNNNNYSDSGAKG
CBP
  association with CBP: negligible association

B3: STAMP834C: STAMP fragment amino acids 834-1277, receptor interaction domain (RID) (protein)
chain: GDHPETIMEEVKIKPPKQQQTTEIHSDKLSRFTTSAEKEAKLVYSNSSSGPTATLQKIPNTHLSSVTTSDLSPGPCHHSSLSQIPSAIPSMPHQPTILLNTVSASASPCLHPGAQNIPSPTGLPRCRSGSHTIGPFSSFQSAAHIYSQKLSRPSSAKAGSCYLNKHHSGIAKTQKEGEDASLYSKRYNQSMVTAELQRLAEKQAARQYSPSSHINLLTQQVTNLNLATGIINRSSASAPPTLRPIISPSGPTWSTQSDPQAPENHSSSPGSRSLQTGGFAWEGEVENNVYSQATGVVPQHKYHPTAGSYQLQFALQQLEQQKLQSRQLLDQSRARHQAIFGSQTLPNSNLWTMNNGAGCRISSATASGQKPTTLPQKVVPPPSSCASLVPKPPPNHEQVLRRATSQKASKGSSAEGQLNGLQSSLNPAASVPITSSTDPAHTKI
[1]
  interaction with thyroid receptor β: lack of interaction
